Experiments:
[1] = target: Purified human C1q (Sigma UK) (human) (UniProt P02745); experiment: cell-based or functional assay
[2] = target: FcγRIII on human peripheral blood mononuclear effector cells (human) (UniProt P08637); experiment: cell-based or functional assay
[3] = target: guinea pig complement (serum); experiment: cell-based or functional assay
[4] = target: FcγRI on IFNγ stimulated U937 cells (UniProt P12314); experiment: 50% inhibition of binding of FITC-labelled mouse lgG2a antibody to U937 cells, FACS
FcγRI on IFNγ stimulated U937 cells, sequence (P12314 16-374 limits assumed): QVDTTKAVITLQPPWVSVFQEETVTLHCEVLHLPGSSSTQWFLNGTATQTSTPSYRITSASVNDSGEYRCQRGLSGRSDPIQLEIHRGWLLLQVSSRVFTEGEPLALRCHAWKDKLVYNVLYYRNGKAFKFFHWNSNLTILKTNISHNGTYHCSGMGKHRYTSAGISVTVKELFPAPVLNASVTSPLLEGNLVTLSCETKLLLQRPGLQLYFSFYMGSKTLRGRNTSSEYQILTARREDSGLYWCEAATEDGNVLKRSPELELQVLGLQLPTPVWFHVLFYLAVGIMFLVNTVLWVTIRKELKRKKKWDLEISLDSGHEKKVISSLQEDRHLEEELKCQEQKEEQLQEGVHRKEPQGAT

Purified human C1q (Sigma UK) (human), sequence (P02745 23-245 limits assumed, chain 1 of 3): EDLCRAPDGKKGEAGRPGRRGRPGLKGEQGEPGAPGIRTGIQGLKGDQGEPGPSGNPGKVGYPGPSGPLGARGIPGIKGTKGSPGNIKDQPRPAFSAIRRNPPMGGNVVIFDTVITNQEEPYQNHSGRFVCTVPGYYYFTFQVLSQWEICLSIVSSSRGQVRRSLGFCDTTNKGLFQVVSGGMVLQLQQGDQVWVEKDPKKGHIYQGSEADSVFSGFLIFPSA
Purified human C1q (Sigma UK) (human), sequence (P02746 28-253 limits assumed, chain 2 of 3, further chain): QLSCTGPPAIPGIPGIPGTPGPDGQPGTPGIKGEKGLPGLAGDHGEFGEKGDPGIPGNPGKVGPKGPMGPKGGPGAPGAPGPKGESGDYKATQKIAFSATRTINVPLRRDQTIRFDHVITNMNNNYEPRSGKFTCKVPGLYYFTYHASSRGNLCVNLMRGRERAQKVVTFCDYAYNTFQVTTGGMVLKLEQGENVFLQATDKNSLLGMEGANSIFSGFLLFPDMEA
Purified human C1q (Sigma UK) (human), sequence (P02747 29-245 limits assumed, chain 3 of 3, further chain): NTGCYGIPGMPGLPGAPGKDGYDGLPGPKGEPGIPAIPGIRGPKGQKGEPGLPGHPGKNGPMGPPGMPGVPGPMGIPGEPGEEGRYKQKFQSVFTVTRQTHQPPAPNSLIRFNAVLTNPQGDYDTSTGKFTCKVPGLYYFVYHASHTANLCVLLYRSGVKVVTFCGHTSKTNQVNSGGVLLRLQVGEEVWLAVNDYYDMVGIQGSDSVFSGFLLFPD
FcγRIII on human peripheral blood mononuclear effector cells (human), sequence (P08637 17-254): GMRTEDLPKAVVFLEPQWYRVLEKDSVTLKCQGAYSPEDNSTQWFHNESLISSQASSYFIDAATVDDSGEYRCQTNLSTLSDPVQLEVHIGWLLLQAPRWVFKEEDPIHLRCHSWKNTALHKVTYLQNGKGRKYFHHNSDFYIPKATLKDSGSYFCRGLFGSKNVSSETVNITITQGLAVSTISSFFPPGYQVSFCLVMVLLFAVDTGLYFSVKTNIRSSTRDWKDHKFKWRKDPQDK

Row | IC50 [4] [µg/mL] | Substance | mg/ml antibody necessary for half maximal cell killing by human complement [1] [mg/mL] | percent plateau cell killing by human complement [1] [%] | ng/ml antibody necessary for half maximal cell killing in ADCC [2] [ng/mL] | plateau level killing with guinea pig complement [3] [%] | maximum cell killing by human complement [1] [%] | maximum killing in ADCC [2] [%] | ng/ml antibody necessary for half maximal cell killing in ADCC (extrapolated value) [2] [ng/mL]
1 | – | chimeric L243 G1[G237A] (from UniProt P01857 1-330; P01834 1-107) (antibody) | 2 | 20 | – | – | – | – | –
2 | – | chimeric L243 G1[K320A] (from UniProt P01857 1-330; P01834 1-107) (antibody) | 0.6 | 70 | 10 | – | – | – | –
3 | – | chimeric L243 G1[L235A] (from UniProt P01857 1-330; P01834 1-107) (antibody) | > 20 | 0 | 9 | 49 | – | – | –
4 | – | chimeric L243 G1[L235E] (from UniProt P01857 1-330; P01834 1-107) (antibody) | > 20 | 0 | – | 40 | – | – | –
5 | – | chimeric L243 G4[L235E] (from UniProt P01861 1-327; P01834 1-107) (antibody) | > 20 | 0 | > 100000 | – | – | – | –
6 | 130 | chimeric L243 human lgG1 wild type (from UniProt P01857 1-330; P01834 1-107) (antibody) | 0.6 | 65 | – | 80 | 64 | – | –
7 | – | chimeric L243 human lgG2 (from UniProt P01859 1-326; P01834 1-107) (antibody) | > 20 | 0 | > 100000 | – | – | – | –
8 | 1200 | chimeric L243 human lgG4 (from UniProt P01861 1-327; P01834 1-107) (antibody) | > 20 | 0 | – | – | – | 20 | 10000

Reference: patent publication WO1994029351A2
